Changes are numbered by the printed parent chain.

This note sets out measurements from patent US6890726, “Method for selecting recombinase variants with altered specificity” (Oklahoma Medical Research Foundation).

Common to all, as to details: chain copies: 4
The target of one data set is T1, Cre R3M2 (mxoxox 2) (UniProt P06956 SEQ:1-343).
T1 chain: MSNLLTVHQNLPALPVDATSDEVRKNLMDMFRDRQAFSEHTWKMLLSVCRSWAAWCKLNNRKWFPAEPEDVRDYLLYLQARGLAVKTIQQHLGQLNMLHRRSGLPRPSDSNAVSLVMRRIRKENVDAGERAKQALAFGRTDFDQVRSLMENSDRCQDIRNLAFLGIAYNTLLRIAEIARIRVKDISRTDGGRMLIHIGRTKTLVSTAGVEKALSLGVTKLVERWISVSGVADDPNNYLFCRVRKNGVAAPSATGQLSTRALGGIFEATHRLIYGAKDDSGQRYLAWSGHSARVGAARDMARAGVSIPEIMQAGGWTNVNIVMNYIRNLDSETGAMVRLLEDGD
In words: cell_activity; E. coli.

The target in another data set is T2, Cre R3M1 (mxoxox 1) (UniProt P06956 SEQ:1-343).
T2 chain: T1 chain with D29A, G138E, D189N, V227I, G254S
The data set can be described thus: cell_activity; E. coli.

For the next data set, the target named is T3, Cre R3M3 (mxoxox 3) (UniProt P06956 SEQ:1-343).
T3 chain: T1 chain with V16I, G138E, D189N, G198S, R223Q, G254S, Q255R, P307L
The data set can be described thus: cell_activity; E. coli.

For the next data set, the target named is Cre E262W (UniProt P06956 P06956:1-343, E262W). The data set can be described thus: cell_activity; similar to E262G. From the text:
(§1) The three defined Cre mutants for the amino acid position 262 were subjected to a functional test for loxK2, loxK1 and loxP recombination activity, as mentioned before. […] To conclude, this final experiment provides the necessary evidence that the E262G mutation presents the basis for the observed decrease in specificity of Cre. However, additional mutations seem to be helpful to increase the newly obtained activity further. In addition, glycine at position 262 is not the only possible residue to permit a remarkable increase in loxK2 activity.
(§2) The results of functional testing of three defined Cre mutants for position 262 compared to wt Cre are listed. All enzymes were checked on loxK2, loxP and loxK1 recombination in the selection strains BS1494, BS1493 and the control strain BS1541. In the first column the Cre candidate is indicated, in the second the allowed time for cre expression. The three following columns show the calculated percentages of Kan^R when subjecting the different Cre mutants and wt Cre to the three selection strains. The frequency of the observed Kan^R phenotype is considered as an indicator for the frequency of […] recombination: On loxK2, E262G and E262W show approximately an 10^3 fold increased Kan^R frequency compared to wt Cre, whereas E262A results in a 200 fold increase. […]

The target in a further data set is Cre E262A (UniProt P06956 P06956:1-343, E262A). The data set can be described thus: cell_activity; E. coli.
Source text: as §1, §2

B1: loxK2 (selection plasmid pBS584) (dsDNA)
DNA 1: GATACAACGTATATACCTTTCTATACGTTGTATT
DNA 2: AATACAACGTATAGAAAGGTATATACGTTGTATC
As to B1, the activity with Cre R3M2 (mxoxox 2) was around 50 % recombination; with Cre R3M1 (mxoxox 1), around 50 % recombination; with Cre R3M3 (mxoxox 3) it was around 50 % recombination; in the data set with Cre E262W, around 1000 fold vs wt; in the data set with Cre E262A, 200 fold vs wt.
